According to article PMC3205929 (The Journal of neuroscience : the official journal of the …, 2011):

Target: DAT 587–590(4A) mutant expressed in PC12 cells (human, UniProt Q01959 1-620, 587–590(4A))
Test: co-IP

basal interaction with Rin, % of wild type DAT: 300 % of wild type DAT/Rin interactions
B1: Rin, endogenous in PC12 cells (natural protein, rat (endogenous in PC12), UniProt Q5BJQ5 1-217, looked up)
chain: MEAENEAHCCPGSSSGGSREYKVVMLGAGGVGKSAVTMQFISHQFPDYHDPTIEDAYKTQVRIDNEPAYLDILDTAGQAEFTAMREQYMRGGEGFIICYSVTDRQSFQEAAKFKELIFQVRHTYEIPLVLVGNKIDLEQFRQVSTEEGMTLARDYNCAFFETSAALRFGIDDAFQGLVREIRRKESMLSLVERKLKRKDSLWKKIKASLKKKRENMI
